{"source": "paper PMC12143593", "key": {"[1]": {"biological_target": "EHE chimera (EcSSB with hSSB1 IDL) (Escherichia coli / human (IDL)) (UniProt P0AGE0)", "experiment": "fluorescence polarization", "details": "20 mM Tris-acetate pH 8, 50 mM K-glutamate, 10 mM Mg-acetate, 25 C, 10 nM labeled oligo, SSB concentrations as tetramers"}, "[2]": {"biological_target": "EPE chimera (EcSSB with PfSSB IDL) (Escherichia coli / Plasmodium falciparum (IDL)) (UniProt P0AGE0)", "experiment": "fluorescence polarization", "details": "20 mM Tris-acetate pH 8, 50 mM K-glutamate, 10 mM Mg-acetate, 25 C; 10 nM labeled oligo, SSB concentrations as tetramers"}, "[3]": {"biological_target": "EcSSB R116D-W136D R116D;W136D (Escherichia coli) (UniProt P0AGE0)", "experiment": "fluorescence polarization", "details": "n = 2; 20 mM Tris-acetate pH 8, 50 mM K-glutamate, 10 mM Mg-acetate, 25 C; 10 nM labeled oligo, SSB concentrations as tetramers"}, "[4]": {"biological_target": "EcSSB W136D W136D (Escherichia coli) (UniProt P0AGE0)", "experiment": "fluorescence polarization", "details": "n = 2; 20 mM Tris-acetate pH 8, 50 mM K-glutamate, 10 mM Mg-acetate, 25 C; 10 nM labeled oligo, SSB concentrations as tetramers"}, "[5]": {"biological_target": "EcSSB WT (Escherichia coli) (UniProt P0AGE0)", "experiment": "fluorescence polarization", "details": "n = 1.9 tetramer per oligo; 20 mM Tris-acetate pH 8, 50 mM K-glutamate, 10 mM Mg-acetate, 25 C; 10 nM labeled oligo, SSB concentrations as tetramers"}, "[6]": {"biological_target": "EcSSB d1G internal_change (Escherichia coli) (UniProt P0AGE0)", "experiment": "fluorescence polarization", "details": "n = 1.9 to 2.3 range; here 2.3; 20 mM Tris-acetate pH 8, 50 mM K-glutamate, 10 mM Mg-acetate, 25 C; 10 nM labeled oligo, SSB concentrations as tetramers"}, "[7]": {"biological_target": "EcSSB d2G internal_change (Escherichia coli) (UniProt P0AGE0)", "experiment": "fluorescence polarization", "details": "n = 2.8; 20 mM Tris-acetate pH 8, 50 mM K-glutamate, 10 mM Mg-acetate, 25 C; 10 nM labeled oligo, SSB concentrations as tetramers"}, "[8]": {"biological_target": "EcSSB dC (construct lacking the CTP, aa 1-170) (Escherichia coli) (UniProt P0AGE0)", "experiment": "fluorescence polarisation; competitive: dC (2.5 uM tetramer) complexed with 25 nM flCTP, titrated with EcSSB constructs (tetramer concentrations); 25°C; 20 mM Tris–acetate pH 8, 50 mM K-glutamate, 10 mM Mg-acetate; competitive binding scheme"}, "RecQ helicase": {"biological_target": "RecQ helicase (UniProt P15043)", "sequence (P15043 whole entry)": "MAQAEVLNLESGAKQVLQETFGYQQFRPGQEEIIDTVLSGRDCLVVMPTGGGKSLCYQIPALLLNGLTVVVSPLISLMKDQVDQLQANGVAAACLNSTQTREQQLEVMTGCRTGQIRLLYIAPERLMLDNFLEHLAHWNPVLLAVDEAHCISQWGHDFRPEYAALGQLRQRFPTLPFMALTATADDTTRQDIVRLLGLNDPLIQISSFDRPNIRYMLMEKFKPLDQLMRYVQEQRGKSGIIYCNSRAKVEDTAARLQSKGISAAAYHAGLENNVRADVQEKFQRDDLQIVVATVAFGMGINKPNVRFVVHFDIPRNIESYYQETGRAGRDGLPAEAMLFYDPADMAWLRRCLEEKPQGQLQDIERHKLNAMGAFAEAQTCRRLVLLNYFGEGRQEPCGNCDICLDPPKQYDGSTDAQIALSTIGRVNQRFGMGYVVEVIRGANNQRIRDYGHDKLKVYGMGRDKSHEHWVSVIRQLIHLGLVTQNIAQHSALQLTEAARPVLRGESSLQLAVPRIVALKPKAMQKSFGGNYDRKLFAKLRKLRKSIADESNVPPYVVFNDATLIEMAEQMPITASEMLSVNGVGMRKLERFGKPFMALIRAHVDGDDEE", "experiment": "fluorescence polarisation; competitive: RecQ–flCTP mixture (0.65 uM RecQ, 25 nM flCTP) titrated with EcSSB constructs (tetramer concentrations); 25°C; 20 mM Tris–acetate pH 8, 50 mM K-glutamate, 10 mM Mg-acetate; competitive binding scheme"}}, "data": [{"substance": "ssDNA36", "values": [{"measurement": "Kd", "setting": "[1]; n = 2.1", "value": 96, "unit": "nM"}, {"measurement": "Kd", "setting": "[2]", "value": 84, "unit": "nM"}, {"measurement": "Kd", "setting": "[3]", "value": 21, "unit": "nM"}, {"measurement": "Kd", "setting": "[4]", "value": 16, "unit": "nM"}, {"measurement": "Kd", "setting": "[5]", "value": 32, "unit": "nM"}, {"measurement": "Kd", "setting": "[6]", "value": 89, "unit": "nM"}, {"measurement": "Kd", "setting": "[7]", "value": 46, "unit": "nM"}]}, {"substance": "EcSSB GG construct (entire IDL except the CTP eliminated) (from UniProt P0AGE0 1-113) (natural protein)", "values": [{"measurement": "Kd", "setting": "[8]", "value": 97, "unit": "nM"}]}, {"substance": "TTTTTTTTTTTTTTTTTTTTTTTTTTTTTTTTTTTTTTTTTTTTTTTTTTTTTTTTTTTTTTTTTTTTTTTTTTTTTTT [dT79]", "values": [{"measurement": "Kd", "setting": "[1]; n = 2.3", "value": "< 10", "unit": "nM"}, {"measurement": "Kd", "setting": "[2]", "value": "< 10", "unit": "nM"}]}, {"substance": "EPE chimeric construct (EcSSB OB domain, IDL of Plasmodium falciparum SSB, EcSSB CTP) (from UniProt P0AGE0;Q8I415)", "values": [{"measurement": "Kd", "setting": "RecQ helicase", "value": "< 10", "unit": "nM"}, {"measurement": "Kd", "setting": "[8]", "value": 57, "unit": "nM"}]}]}
